According to the supplement of paper PMC10201428:
± gives the standard deviation of the averaged measurements.

Assays:
[1] = system: VchCAST RNA-guided transposition machinery (E. coli BL21(DE3) host, lacZ target); assay: relative integration efficiency (T-RL orientation) vs wild-type transposon end (log2 (normalized fold change)); transposon end mutated: right end (5 bp flank + 75 bp right end); higher = more efficient transposition
Procedure, shortened: (§1)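 Barcode abundances in input plasmids and in genomic integration junctions were obtained by PCR amplification and Illumina sequencing. These came from E. coli BL21(DE3) co-transformed with a T7-driven effector plasmid and a pUC57 donor carrying 1549 left-end or 1849 right-end transposon variants, then plated with 0.1 mM IPTG at 37°C for 18 h. Relative integration efficiency is the output/input fold change, normalised to reference barcodes and log-transformed.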

[2] = system: VchCAST RNA-guided transposition machinery (E. coli BL21(DE3) host, lacZ target); assay: relative integration efficiency (T-LR orientation) vs wild-type transposon end (log2 (normalized fold change)); transposon end mutated: right end (5 bp flank + 75 bp right end); higher = more efficient transposition
Procedure, shortened: as §1

| Sequence | relative integration efficiency (log2) [1] | relative integration efficiency (log2) [2] |
| --- | --- | --- |
| ACATTTGTTGATACAACCATAAAATGATAATTACACCCATAAATTGATAATTATCACACCCATAAATTGATATTGCCTCTGATAACTTCGTATAAGGTATACTATACGAAGTTATTCGCACCGACAC | -0.433 ± 0.28 | 1.55 ± 0.38 |
| ACATTTGTTGATACAACCATAAAATGATAATTACACCCATAAATTGATAATTATCACACCCATAAATTGATATTGCCTCTGATAACTTCGTATAATGTATACTATACGAAGTTATTCGCACCGACAC | -1.3 ± 0.39 | 1.63 ± 0.07 |
| ACATTTGTTGATACAACCATAAAATGATAATTACACCCATAAATTGATAATTATCACACCCATAAATTGATATTGCCTCTGATAACTTCGTATAATGTATCGTATACGAACGGTATCGCACCGACAC | -0.379 ± 0.29 | -0.264 ± 0.53 |
| ACATTTGTTGATACAACCATAAAATGATAATTACACCCATAAATTGATAATTATCACACCCATAAATTGATATTGCCTCTGATAACTTCGTATAATGTATGCTATACGAAGTTATTCGCACCGACAC | -0.484 ± 0.19 | 0.719 ± 0.031 |
| ACATTTGTTGATACAACCATAAAATGATAATTACACCCATAAATTGATAATTATCACACCCATAAATTGATATTGCCTCTGATAACTTCGTATAGCATACATTATACGAAGTTATTCGCACCGACAC | -3.13 ± 0.076 | 2.48 ± 0.26 |
| ACATTTGTTGATACAACCATAAAATGATAATTACACCCATAAATTGATAATTATCACACCCATAAATTGATATTGCCTCTGATAACTTCGTATAGGATACTTTATACGAAGTTATTCGCACCGACAC | -0.663 ± 0.27 | 1.19 ± 0.28 |
| ACATTTGTTGATACAACCATAAAATGATAATTACACCCATAAATTGATAATTATCACACCCATAAATTGATATTGCCTCTGATAACTTCGTATAGTATACATTATACGAAGTTATTCGCACCGACAC | -2.13 ± 0.21 | 2.27 ± 0.2 |
| ACATTTGTTGATACAACCATAAAATGATAATTACACCCATAAATTGATAATTATCACACCCATAAATTGATATTGCCTCTGATAACTTCGTATAGTATACCTTATACGAAGTTATTCGCACCGACAC | -0.958 ± 0.26 | 1.034 ± 0.0024 |
| ACATTTGTTGATACAACCATAAAATGATAATTACACCCATAAATTGATAATTATCACACCCATAAATTGATATTGCCTCTGATAACTTGGTATAGCATACATTATACGAACGGTATCGCACCGACAC | -0.811 ± 0.36 | 0.663 ± 0.24 |
| ACATTTGTTGATACAACCATAAAATGATAATTACACCCATAAATTGATAATTATCACACCCATAAATTGATATTGCCTCTGATAGTACTGCGCGCCTGAATTCATCGTTAAATCGTCGCACCGACAC | 0.0579 ± 0.2 | 0.249 ± 0.17 |
| ACATTTGTTGATACAACCATAAAATGATAATTACACCCATAAATTGATAATTATCACACCCATAAATTGATATTGCCTCTGATCAAAATGTGAGCGAGTAACAACCTAGTCAGACCAGCACCGACAC | -0.102 ± 0.08 | -0.0747 ± 0.17 |
| ACATTTGTTGATACAACCATAAAATGATAATTACACCCATAAATTGATAATTATCACACCCATAAATTGATATTGCCTCTGATCAAATTGTGAGCGGATAACAATTTAGTCAGACCAGCACCGACAC | -0.232 ± 0.12 | 0.00708 ± 0.62 |
| ACATTTGTTGATACAACCATAAAATGATAATTACACCCATAAATTGATAATTATCACACCCATAAATTGATATTGCCTCTGATCAACCATAAAATGATAATTACATAGTCAGACCAAGCACCGACAC | 0.875 ± 0.21 | 0.401 ± 0.26 |
| ACATTTGTTGATACAACCATAAAATGATAATTACACCCATAAATTGATAATTATCACACCCATAAATTGATATTGCCTCTGATCAATATGTAACCAAAAGTAAAATAGTCAGACCAAGCACCGACAC | -0.295 ± 0.29 | 0.023 ± 0.042 |
| ACATTTGTTGATACAACCATAAAATGATAATTACACCCATAAATTGATAATTATCACACCCATAAATTGATATTGCCTCTGATCACAACCATAAAATGATAATTATAGTCAGACCAAGCACCGACAC | -0.0149 ± 0.23 | -0.402 ± 0.11 |
| ACATTTGTTGATACAACCATAAAATGATAATTACACCCATAAATTGATAATTATCACACCCATAAATTGATATTGCCTCTGATCAGGAATTGTGAGCGGATAACAATTTAGTCAGACGCACCGACAC | 0.138 ± 0.16 | 0.397 ± 0.067 |
| ACATTTGTTGATACAACCATAAAATGATAATTACACCCATAAATTGATAATTATCACACCCATAAATTGATATTGCCTCTGATCAGGCAGTGAGCGCAACGCAATTTAGTCAGACCAGCACCGACAC | -0.283 ± 0.16 | -0.287 ± 0.16 |
